T1: human IL-2 receptor (IL-2Rα/IL-2Rβ/γc) (human, UniProt P01589 22-272; P14784 27-551; P31785 23-369)
T1 sequence 1: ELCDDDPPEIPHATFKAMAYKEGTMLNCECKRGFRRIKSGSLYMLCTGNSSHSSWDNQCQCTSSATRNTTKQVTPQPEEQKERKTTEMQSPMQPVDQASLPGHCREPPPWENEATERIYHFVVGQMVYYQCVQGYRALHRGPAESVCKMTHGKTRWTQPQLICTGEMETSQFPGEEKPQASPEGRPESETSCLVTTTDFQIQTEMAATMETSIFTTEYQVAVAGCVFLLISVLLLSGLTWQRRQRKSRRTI
T1 sequence 2: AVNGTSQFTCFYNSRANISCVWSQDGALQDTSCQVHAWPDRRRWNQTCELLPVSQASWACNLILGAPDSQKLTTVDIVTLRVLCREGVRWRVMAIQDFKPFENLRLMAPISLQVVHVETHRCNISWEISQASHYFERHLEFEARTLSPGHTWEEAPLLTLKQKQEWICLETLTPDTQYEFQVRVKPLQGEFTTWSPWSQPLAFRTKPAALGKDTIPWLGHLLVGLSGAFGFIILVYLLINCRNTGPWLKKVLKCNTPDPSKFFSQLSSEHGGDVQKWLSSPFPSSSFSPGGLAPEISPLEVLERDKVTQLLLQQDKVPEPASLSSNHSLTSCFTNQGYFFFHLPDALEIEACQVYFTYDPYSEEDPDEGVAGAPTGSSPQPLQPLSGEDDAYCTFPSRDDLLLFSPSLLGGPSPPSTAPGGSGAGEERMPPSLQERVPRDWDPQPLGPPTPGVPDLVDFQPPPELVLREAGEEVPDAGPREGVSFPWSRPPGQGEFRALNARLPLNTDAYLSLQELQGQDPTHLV
T1 sequence 3: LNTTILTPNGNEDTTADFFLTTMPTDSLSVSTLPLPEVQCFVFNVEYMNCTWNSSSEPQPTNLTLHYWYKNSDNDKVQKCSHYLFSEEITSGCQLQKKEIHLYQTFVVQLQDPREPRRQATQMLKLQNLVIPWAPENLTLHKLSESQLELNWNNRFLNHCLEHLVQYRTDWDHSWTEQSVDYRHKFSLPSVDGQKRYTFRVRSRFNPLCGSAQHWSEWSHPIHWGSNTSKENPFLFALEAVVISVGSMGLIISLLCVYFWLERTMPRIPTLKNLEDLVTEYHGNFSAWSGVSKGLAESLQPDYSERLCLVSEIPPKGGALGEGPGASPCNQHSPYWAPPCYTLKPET

B1: DC00067 (other)
chain 1: EVQLVESGGGLVQTGGSLRLSCAASGGTFSRDAMAWFRQVPGKEREFVALISWSGATTNYADSVKGRFAISRDNGKNTVYLQMNRLKPADTAIYYCAADRRPMGSRSYFEPTEYDDWGQGTQVTVSSGGGGSGGGGSGGGGSQVQLVESGGGLVQPGGSLRLSCATSGFTFRNNFMSWVRQAPGKGLEWVSTISYGGESTTYAESVKGRFTISRDNAKNTLYLQMNNLKPEDTAVYYCAKATSYDSIRSGSRGQGTQVTVSSDKTHTCPPCPAPEAAGGPSVFLFPPKPKDTLMISRTPEVTCVVVDVSHEDPEVKFNWYVDGVEVHNAKTKPREEQYNSTYRVVSVLTVLHQDWLNGKEYKCKVSNKALGAPIEKTISKAKGQPREPQVYTLPPSRDELTKNQVSLTCLVKGFYPSDIAVEWESNGQPENNYKTTPPVLDSDGSFLLYSKLTVDKSRWQQGNVFSCSVMHEALHNHYTQKSLSLSPGK
chain 2: QVQLVESGGGLVQAGGSLTLSCAAPGRTFGTDVVGWFRQAPGKEREFVASISRSGDGIYYDDSVKGRFTISRNNAWNTVNLQMNSLKVEDTAVYYCAAGDGWSTYDYWGQGTQVTVSSGGGGSGGGGSGGGGSEVQLVESGGGLVQTGGSLRLSCAASGGTFSRDAMAWFRQVPGKEREFVALISWSGATTNYADSVKGRFAISRDNGKNTVYLQMNRLKPADTAIYYCAADRRPMGSRSYFEPTEYDDWGQGTQVTVSSGGGGSGGGGSGGGGSQVQLVESGGGLVQPGGSLRLSCATSGFTFRNNFMSWVRQAPGKGLEWVSTISYGGESTTYAESVKGRFTISRDNAKNTLYLQMNNLKPEDTAVYYCAKATSYDSIRSGSRGQGTQVTVSSDKTHTCPPCPAPEAAGGPSVFLFPPKPKDTLMISRTPEVTCVVVDVSHEDPEVKFNWYVDGVEVHNAKTKPREEQYNSTYRVVSVLTVLHQDWLNGKEYKCKVSNKALGAPIEKTISKAKGQPREPQVYTLPPSRDELTKNQVSLTCLVKGFYPSDIAVEWESNGQPENNYKTTPPVLDSDGSFFLYSRLTVDKSRWQQGNVFSCSVMHEALHNHYTQKSLSLSPGK
B2: DC00070 (other)
chain 1: B1 chain 1
chain 2: QVQLVESGGGLVQAGGSLTLSCAAPGRTFGTDVVGWFRQAPGKEREFVASISRSGDGIYYDDSVKGRFTISRNNAWNTVNLQMNSLKVEDTAVYYCAAGDGWSTYDYWGQGTQVTVSSGGGGSGGGGSGGGGSQVQLVESGGGLVQPGGSLRLSCATSGFTFRNNFMSWVRQAPGKGLEWVSTISYGGESTTYAESVKGRFTISRDNAKNTLYLQMNNLKPEDTAVYYCAKATSYDSIRSGSRGQGTQVTVSSDKTHTCPPCPAPEAAGGPSVFLFPPKPKDTLMISRTPEVTCVVVDVSHEDPEVKFNWYVDGVEVHNAKTKPREEQYNSTYRVVSVLTVLHQDWLNGKEYKCKVSNKALGAPIEKTISKAKGQPREPQVYTLPPSRDELTKNQVSLTCLVKGFYPSDIAVEWESNGQPENNYKTTPPVLDSDGSFFLYSRLTVDKSRWQQGNVFSCSVMHEALHNHYTQKSLSLSPGK
B3: DC00069 (other)
chain 1: B1 chain 1
chain 2: QVQLVESGGGLVQPGGSLRLSCATSGFTFRNNFMSWVRQAPGKGLEWVSTISYGGESTTYAESVKGRFTISRDNAKNTLYLQMNNLKPEDTAVYYCAKATSYDSIRSGSRGQGTQVTVSSGGGGSGGGGSGGGGSQVQLVESGGGLVQAGGSLTLSCAAPGRTFGTDVVGWFRQAPGKEREFVASISRSGDGIYYDDSVKGRFTISRNNAWNTVNLQMNSLKVEDTAVYYCAAGDGWSTYDYWGQGTQVTVSSGGGGSGGGGSGGGGSDKTHTCPPCPAPEAAGGPSVFLFPPKPKDTLMISRTPEVTCVVVDVSHEDPEVKFNWYVDGVEVHNAKTKPREEQYNSTYRVVSVLTVLHQDWLNGKEYKCKVSNKALGAPIEKTISKAKGQPREPQVYTLPPSRDELTKNQVSLTCLVKGFYPSDIAVEWESNGQPENNYKTTPPVLDSDGSFFLYSRLTVDKSRWQQGNVFSCSVMHEALHNHYTQKSLSLSPGK
B4: DC00039 (other)
chain 1: QVQLVESGGGLVQPGGSLRLSCATSGFTFRNNFMSWVRQAPGKGLEWVSTISYGGESTTYAESVKGRFTISRDNAKNTLYLQMNNLKPEDTAVYYCAKATSYDSIRSGSRGQGTQVTVSSDKTHTCPPCPAPEAAGGPSVFLFPPKPKDTLMISRTPEVTCVVVDVSHEDPEVKFNWYVDGVEVHNAKTKPREEQYNSTYRVVSVLTVLHQDWLNGKEYKCKVSNKALGAPIEKTISKAKGQPREPQVYTLPPSRDELTKNQVSLTCLVKGFYPSDIAVEWESNGQPENNYKTTPPVLDSDGSFLLYSKLTVDKSRWQQGNVFSCSVMHEALHNHYTQKSLSLSPGK
chain 2: EVQLVESGGGLVQTGGSLRLSCAASGGTFSRDAMAWFRQVPGKEREFVALISWSGATTNYADSVKGRFAISRDNGKNTVYLQMNRLKPADTAIYYCAADRRPMGSRSYFEPTEYDDWGQGTQVTVSSGGGGSGGGGSGGGGSQVQLVESGGGLVQPGGSLRLSCATSGFTFRNNFMSWVRQAPGKGLEWVSTISYGGESTTYAESVKGRFTISRDNAKNTLYLQMNNLKPEDTAVYYCAKATSYDSIRSGSRGQGTQVTVSSGGGGSGGGGSGGGGSQVQLVESGGGLVQAGGSLTLSCAAPGRTFGTDVVGWFRQAPGKEREFVASISRSGDGIYYDDSVKGRFTISRNNAWNTVNLQMNSLKVEDTAVYYCAAGDGWSTYDYWGQGTQVTVSSGGGGSGGGGSGGGGSDKTHTCPPCPAPEAAGGPSVFLFPPKPKDTLMISRTPEVTCVVVDVSHEDPEVKFNWYVDGVEVHNAKTKPREEQYNSTYRVVSVLTVLHQDWLNGKEYKCKVSNKALGAPIEKTISKAKGQPREPQVYTLPPSRDELTKNQVSLTCLVKGFYPSDIAVEWESNGQPENNYKTTPPVLDSDGSFFLYSRLTVDKSRWQQGNVFSCSVMHEALHNHYTQKSLSLSPGK
B5: DC00041 (other)
chain 1: B4 chain 1
chain 2: QVQLVESGGGLVQPGGSLRLSCATSGFTFRNNFMSWVRQAPGKGLEWVSTISYGGESTTYAESVKGRFTISRDNAKNTLYLQMNNLKPEDTAVYYCAKATSYDSIRSGSRGQGTQVTVSSGGGGSGGGGSGGGGSQVQLVESGGGLVQAGGSLTLSCAAPGRTFGTDVVGWFRQAPGKEREFVASISRSGDGIYYDDSVKGRFTISRNNAWNTVNLQMNSLKVEDTAVYYCAAGDGWSTYDYWGQGTQVTVSSGGGGSGGGGSGGGGSEVQLVESGGGLVQTGGSLRLSCAASGGTFSRDAMAWFRQVPGKEREFVALISWSGATTNYADSVKGRFAISRDNGKNTVYLQMNRLKPADTAIYYCAADRRPMGSRSYFEPTEYDDWGQGTQVTVSSGGGGSGGGGSGGGGSDKTHTCPPCPAPEAAGGPSVFLFPPKPKDTLMISRTPEVTCVVVDVSHEDPEVKFNWYVDGVEVHNAKTKPREEQYNSTYRVVSVLTVLHQDWLNGKEYKCKVSNKALGAPIEKTISKAKGQPREPQVYTLPPSRDELTKNQVSLTCLVKGFYPSDIAVEWESNGQPENNYKTTPPVLDSDGSFFLYSRLTVDKSRWQQGNVFSCSVMHEALHNHYTQKSLSLSPGK
B6: DC00040 (other)
chain 1: B4 chain 1
chain 2: EVQLVESGGGLVQTGGSLRLSCAASGGTFSRDAMAWFRQVPGKEREFVALISWSGATTNYADSVKGRFAISRDNGKNTVYLQMNRLKPADTAIYYCAADRRPMGSRSYFEPTEYDDWGQGTQVTVSSGGGGSGGGGSGGGGSQVQLVESGGGLVQAGGSLTLSCAAPGRTFGTDVVGWFRQAPGKEREFVASISRSGDGIYYDDSVKGRFTISRNNAWNTVNLQMNSLKVEDTAVYYCAAGDGWSTYDYWGQGTQVTVSSGGGGSGGGGSGGGGSDKTHTCPPCPAPEAAGGPSVFLFPPKPKDTLMISRTPEVTCVVVDVSHEDPEVKFNWYVDGVEVHNAKTKPREEQYNSTYRVVSVLTVLHQDWLNGKEYKCKVSNKALGAPIEKTISKAKGQPREPQVYTLPPSRDELTKNQVSLTCLVKGFYPSDIAVEWESNGQPENNYKTTPPVLDSDGSFFLYSRLTVDKSRWQQGNVFSCSVMHEALHNHYTQKSLSLSPGK

Each binder was assayed against T1, human IL-2 receptor (IL-2Rα/IL-2Rβ/γc) (assay: cell-based or functional assay).

Row | EC50 (nM) pSTAT5, NK, human PBMCs [nM] | EC50 (nM) pSTAT5, Treg, human PBMCs | Fold Max signal (% pSTAT5+) Treg/NK [fold] | Max signal (% pSTAT5+), NK [% pSTAT5+] | Max signal (% pSTAT5+), Treg [% pSTAT5+] | fold EC50 NK/Treg [fold] | Binder
1 | 0.217 | < 0.1 pM | 2 | 39 | 95 | > 2180 | B1
2 | 0.0538 | 0.497 pM | 7 | 11 | 80 | 108 | B2
3 | 0.234 | 0.00119 nM | 7 | 12 | 87 | 197 | B3
4 | 0.0315 | 0.761 pM | 11 | 4 | 46 | 41 | B4
5 | 0.15 | < 0.1 pM | 5 | 17 | 94 | > 1500 | B5
6 | 0.701 | 0.0158 nM | 10 | 4 | 43 | 44 | B6
